One block for each binder: values may come before it.
Experiments:
Assay in all cases: two-hybrid library CCNG1;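 further: natural log of median RNA to DNA barcode read ratio; higher means stronger binding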
4H3189-bH = target: T1, 4H3189-bH
T1 chain: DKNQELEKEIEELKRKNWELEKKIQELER

4H687-bH = target: T2, 4H687-bH
T2 chain: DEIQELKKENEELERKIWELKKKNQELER

4H918-bH = target: T3, 4H918-bH
T3 chain: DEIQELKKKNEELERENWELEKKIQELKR

4H72-bH = target: T4, 4H72-bH
T4 chain: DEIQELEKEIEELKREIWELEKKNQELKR

4H953-bH = target: T5, 4H953-bH
T5 chain: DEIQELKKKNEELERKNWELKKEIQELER

4H3606-bH = target: T6, 4H3606-bH
T6 chain: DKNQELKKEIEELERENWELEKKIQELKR

4H2618-bH = target: T7, 4H2618-bH
T7 chain: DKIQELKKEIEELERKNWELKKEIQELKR

4H3112-bH = target: T8, 4H3112-bH
T8 chain: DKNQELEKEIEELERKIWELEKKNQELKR

4H3782-bH = target: T9, 4H3782-bH
T9 chain: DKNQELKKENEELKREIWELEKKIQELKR

4H3427-bH = target: T10, 4H3427-bH
T10 chain: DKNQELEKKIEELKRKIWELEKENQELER

4H2697-bH = target: T11, 4H2697-bH
T11 chain: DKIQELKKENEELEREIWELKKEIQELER

4H967-bH = target: T12, 4H967-bH
T12 chain: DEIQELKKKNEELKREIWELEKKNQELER

4H338-bH = target: T13, 4H338-bH
T13 chain: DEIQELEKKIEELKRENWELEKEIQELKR

4H462-bH = target: T14, 4H462-bH
T14 chain: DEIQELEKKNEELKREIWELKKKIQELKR

4H2576-bH = target: T15, 4H2576-bH
T15 chain: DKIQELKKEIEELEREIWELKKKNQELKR

4H4001-bH = target: T16, 4H4001-bH
T16 chain: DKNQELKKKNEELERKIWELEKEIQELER

4H953-bA = target: T17, 4H953-bA
T17 chain: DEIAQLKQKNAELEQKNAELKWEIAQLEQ

4H754-bH = target: T18, 4H754-bH
T18 chain: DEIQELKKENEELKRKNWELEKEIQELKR

4H3855-bH = target: T19, 4H3855-bH
T19 chain: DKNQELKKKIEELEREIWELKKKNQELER

4H568-bH = target: T20, 4H568-bH
T20 chain: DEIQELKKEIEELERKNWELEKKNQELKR

4H370-bH = target: T21, 4H370-bH
T21 chain: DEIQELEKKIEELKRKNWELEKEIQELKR

4H717-bH = target: T22, 4H717-bH
T22 chain: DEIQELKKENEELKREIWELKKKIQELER

4H883-bH = target: T23, 4H883-bH
T23 chain: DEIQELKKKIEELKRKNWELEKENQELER

4H797-bH = target: T24, 4H797-bH
T24 chain: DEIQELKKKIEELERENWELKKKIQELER

4H607-bH = target: T25, 4H607-bH
T25 chain: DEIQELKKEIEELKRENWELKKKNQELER

4H454-bH = target: T26, 4H454-bH
T26 chain: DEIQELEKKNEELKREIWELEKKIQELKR

4H2610-bH = target: T27, 4H2610-bH
T27 chain: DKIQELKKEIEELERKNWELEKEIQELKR

4H2729-bH = target: T28, 4H2729-bH
T28 chain: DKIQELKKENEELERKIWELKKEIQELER

4H3185-bH = target: T29, 4H3185-bH
T29 chain: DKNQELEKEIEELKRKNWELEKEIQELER

4H3843-bH = target: T30, 4H3843-bH
T30 chain: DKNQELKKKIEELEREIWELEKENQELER

4H908-bH = target: T31, 4H908-bH
T31 chain: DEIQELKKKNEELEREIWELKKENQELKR

4H918-bA = target: T32, 4H918-bA
T32 chain: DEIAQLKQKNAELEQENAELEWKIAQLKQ

4H2667-bH = target: T33, 4H2667-bH
T33 chain: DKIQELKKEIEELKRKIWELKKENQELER

4H3354-bH = target: T34, 4H3354-bH
T34 chain: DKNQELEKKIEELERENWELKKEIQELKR

4H331-bH = target: T35, 4H331-bH
T35 chain: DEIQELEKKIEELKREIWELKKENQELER

4H3961-bH = target: T36, 4H3961-bH
T36 chain: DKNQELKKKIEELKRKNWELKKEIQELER

4H3907-bH = target: T37, 4H3907-bH
T37 chain: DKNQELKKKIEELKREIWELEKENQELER

4H470-bH = target: T38, 4H470-bH
T38 chain: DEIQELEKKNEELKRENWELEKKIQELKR

4H363-bH = target: T39, 4H363-bH
T39 chain: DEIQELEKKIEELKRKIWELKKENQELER

4H491-bH = target: T40, 4H491-bH
T40 chain: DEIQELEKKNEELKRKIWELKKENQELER

O6-bP = target: T41, O6-bP
T41 chain: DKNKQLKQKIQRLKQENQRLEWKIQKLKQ

4H48-bH = target: T42, 4H48-bH
T42 chain: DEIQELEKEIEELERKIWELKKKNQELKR

interaction score (4H3189-bH): 0.969
interaction score (4H687-bH): -0.475
interaction score (4H918-bH): -0.721
interaction score (4H72-bH): 0.621
interaction score (4H953-bH): -0.152
interaction score (4H3606-bH): -2.37
interaction score (4H2618-bH): 1.01
interaction score (4H3112-bH): 0.913
interaction score (4H3782-bH): -0.128
interaction score (4H3427-bH): 1.73
interaction score (4H2697-bH): -0.201
interaction score (4H967-bH): -3.3
interaction score (4H338-bH): 0.794
interaction score (4H462-bH): 0.615
interaction score (4H2576-bH): 0.71
interaction score (4H4001-bH): 1.28
interaction score (4H953-bA): -1.63
interaction score (4H754-bH): -2.65
interaction score (4H3855-bH): 0.305
interaction score (4H568-bH): 0.102
interaction score (4H370-bH): 1.62
interaction score (4H717-bH): -1.86
interaction score (4H883-bH): -0.465
interaction score (4H797-bH): -0.961
interaction score (4H607-bH): -1.37
interaction score (4H454-bH): 1.67
interaction score (4H2610-bH): -0.788
interaction score (4H2729-bH): 1.93
interaction score (4H3185-bH): 0.137
interaction score (4H3843-bH): 1.11
interaction score (4H908-bH): -1.34
interaction score (4H918-bA): -0.341
interaction score (4H2667-bH): 0.467
interaction score (4H3354-bH): -0.952
interaction score (4H331-bH): 1.97
B1: 4H2576-bH (peptide)
chain: DKIQELKKEIEELEREIWELKKKNQELKR

interaction score (4H3961-bH): 0.532
interaction score (4H3907-bH): 1.26
interaction score (4H470-bH): 0.465
interaction score (4H363-bH): 1.36
B2: 4H363-bH (peptide)
chain: DEIQELEKKIEELKRKIWELKKENQELER

interaction score (4H491-bH): 2.29
interaction score (O6-bP): -0.138
interaction score (4H48-bH): 1.21
B3: 4H48-bH (peptide)
chain: DEIQELEKEIEELERKIWELKKKNQELKR

Reference: PMC10397247
